Target: epidermal growth factor receptor (EGFR) (human, UniProt P00533 25-1210)
Test: cell-based or functional assay

B1: EGF4 KDEL (ligand)
chain: MNSDSECPLSHDGYCLHDGVCMYIEALDKYACNCVVGYIGERCQYRDLKWWELRPSGQAGAAASESLFVSNHAYMGLTSQLLPPLFFLLACAGNFVHGHKCDITLQEIIKTLNSLTEQKTLCTELTVTDIFAASKNTTEKETFCRAATVLRQFYSHHEKDTRCLGATAQQFHRHKQLIRFLKRLDRNLWGLAGLNSCPVKEANQSTLENFLERLKTIMREKYSKCSSEASGGPEPEGGSLAALTAHQACHLPLETFTRHRQPRGWEQLEQCGYPVQRLVALYLAARLSWNQVDQVIRNALASPGSGGDLGEAIREQPEQARLALTLAAAESERFVRQGTGNDEAGAANADVVSLTCPVAAGECAGPADSGDALLERNYPTGAEFLGDGGDVSFSTRGTQNWTVERLLQAHRQLEERGYVFVGYHGTFLEAAQSIVFGGVRARSQDLDAIWRGFYIAGDPALAYGYAQDQEPDARGRIRNGALLRVYVPRSSLPGFYRTSLTLAAPEAAGEVERLIGHPLPLRLDAITGPEEEGGRLETILGWPLAERTVVIPSAIPTDPRNVGGDLDPSSIPDKEQAISALPDYASQPGKPPKDEL
IC50, killing of MDA-MB-231 cells (3H-thymidine uptake assay): 2 pM
